Test results as given in publication PMC6201861.

Target: mAb-hERG1
Assay: SPR; Biacore T200; mAb-hERG1 bound to a Protein G pre-coated CM5 chip (7693 RU); S5-Pore applied at 10, 50, 100, 500 nM, single cycle kinetics; contact 30 s, dissociation 120 s, 30 ul/min

mAb-hERG1, sequence (heavy, as listed by the source, chain 1 of 2): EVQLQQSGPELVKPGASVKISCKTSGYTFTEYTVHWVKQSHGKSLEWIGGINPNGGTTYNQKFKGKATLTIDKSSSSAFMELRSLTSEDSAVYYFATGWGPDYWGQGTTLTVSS
mAb-hERG1, sequence (light, as listed by the source, chain 2 of 2): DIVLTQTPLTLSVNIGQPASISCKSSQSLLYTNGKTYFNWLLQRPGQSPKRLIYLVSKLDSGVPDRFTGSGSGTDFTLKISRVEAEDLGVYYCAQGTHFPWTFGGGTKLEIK

**Q.** For EQPHMDSRIGWLHN [S5-Pore peptide], which Kd is on record?
**A.** The Kd was 16.2 nM.

**Q.** What about the koff of the same binder?
**A.** The koff was 0.0258 s⁻¹.

**Q.** What about the kon of the same binder?
**A.** The kon was 1.6e+06 M⁻¹ s⁻¹.
